From the Human Domainome abundance scans (Beltran et al. 2025)
± gives the uncertainty stated by the source.

B1: Endonuclease CUE2, residues 9 to 47; numbered along this chain, P36075 (parent)
chain: HESKLSILMDMFPAISKSKLQVHLLENNNDLDLTIGLLL

Variants of: B1
Assay: abundance fitness (aPCA) (normalised: wild type 0, dead -1); higher = more abundant; growth selection in yeast, the domain comes from the species named
Conditions: Saccharomyces cerevisiae (strain ATCC 204508 / S288c)

Variant	abundance fitness
HESKLSILMDMFPAISKSKLQVNLLENNNDLDLTIGLLL	-0.026 ± 0.089
HESKLSILMDMFPAISKSKLQVYLLENNNDLDLTIGLLL	-0.154 ± 0.23
HESKLSILMDMFPAISKSKLQVKLLENNNDLDLTIGLLL	-0.338 ± 0.1
HESKLSILMDMFPAISKSKLQVMLLENNNDLDLTIGLLL	-0.165 ± 0.052
HESKLSILMDMFPAISKSKLQVVLLENNNDLDLTIGLLL	-0.146 ± 0.037
HESKLSILMDMFPAISKSKLQVQLLENNNDLDLTIGLLL	-0.151 ± 0.065
HESKLSILMDMFPAISKSKLQVALLENNNDLDLTIGLLL	-0.075 ± 0.036
HESKLSILMDMFPAISKSVLQVHLLENNNDLDLTIGLLL	-0.038 ± 0.034
HESKLSILMDMFPAISKSYLQVHLLENNNDLDLTIGLLL	-0.364 ± 0.071
HESKLSILMDMFPAISKSRLQVHLLENNNDLDLTIGLLL	-0.01 ± 0.034
HESKLSILMDMFPAISKSQLQVHLLENNNDLDLTIGLLL	-0.048 ± 0.044
HESKLSILMDMFPAISKSTLQVHLLENNNDLDLTIGLLL	-0.015 ± 0.047
HESKLSILMDMFPAISKSSLQVHLLENNNDLDLTIGLLL	-0.059 ± 0.041
HESKLSILMDMFPAISKSWLQVHLLENNNDLDLTIGLLL	-0.248 ± 0.052
HESKLSILMDMFPAISKSKLQVHLLENKNDLDLTIGLLL	0.104 ± 0.066
HESKLSILMDMFPAISKSKLQVHLLENDNDLDLTIGLLL	0.022 ± 0.12
HESKLSILMDMFPAISKSKLQVHLLENHNDLDLTIGLLL	-0.148 ± 0.18
HESKLSILMDMFPAISKSKLQVHLLENMNDLDLTIGLLL	-0.045 ± 0.062
HESKLSILMDMFPAISKSKLQVHLLENGNDLDLTIGLLL	0.025 ± 0.031
HESKLSILMDMFPAISKSKLQVHLLENENDLDLTIGLLL	0.018 ± 0.039
HESKLSILMDMFPAISKSKLQVHLLENCNDLDLTIGLLL	-0.329 ± 0.15
HESKLSILMDMFPAISKSKLQVHLLENANDLDLTIGLLL	-0.024 ± 0.039

Variant	abundance fitness
HESKLSILMDMFPAISKSKLQVHILENNNDLDLTIGLLL	-1 ± 0.24
HESKLSILMDMFPAISKSKLQVHYLENNNDLDLTIGLLL	-0.57 ± 0.4
HESKLSILMDMFPAISKSKLQVHTLENNNDLDLTIGLLL	-0.595 ± 0.2
HESKLSILMDMFPAISKSKLQVHRLENNNDLDLTIGLLL	-0.855 ± 0.066
HESKLSILMDMFPAISKSKLQVHQLENNNDLDLTIGLLL	-1.08 ± 0.42
HESKLSILMDMFPAISKSKLQVHELENNNDLDLTIGLLL	-0.88 ± 0.12
HESKLSILMDMFPAISKSKLQVHGLENNNDLDLTIGLLL	-0.929 ± 0.07
HESKLSILMDMFPAISKSKLQVHVLENNNDLDLTIGLLL	-0.849 ± 0.061
HESKLSILMDMFPAISKSKLQVHWLENNNDLDLTIGLLL	-1.05 ± 0.12
HESKLSILMDMFPAISKSKLQVHPLENNNDLDLTIGLLL	-0.982 ± 0.21
HESKLSILMDMFPAISKSKLQVHALENNNDLDLTIGLLL	-0.898 ± 0.091
HESKLSILMDMFPAISKSKLQVHMLENNNDLDLTIGLLL	-0.31 ± 0.1
HESKLSILMDMFPAISKSKLQVHLLKNNNDLDLTIGLLL	-0.086 ± 0.14
HESKLSILMDMFPAISKSKLQVHLLANNNDLDLTIGLLL	0.047 ± 0.036
HESKLSILMDMFPAISKSKLQVHLLVNNNDLDLTIGLLL	-0.257 ± 0.046
HESKLSILMDMFPAISKSKLQVHLLMNNNDLDLTIGLLL	-0.176 ± 0.068
HESKLSILMDMFPAISKSKLQVHLLRNNNDLDLTIGLLL	-0.045 ± 0.032
HESKLSILMDMFPAISKSKLQVHLLNNNNDLDLTIGLLL	0.381 ± 0.095
HESKLSILMDMFPAISKSKLQVHLLDNNNDLDLTIGLLL	-0.139 ± 0.13
HESKLSILMDMFPAISKSKLQVHLLWNNNDLDLTIGLLL	-0.639 ± 0.071
HESKLSILMDMFPAISKSKLQVHLLGNNNDLDLTIGLLL	-0.123 ± 0.035
HESKLSILMDMFPAISKSKLQVHLLQNNNDLDLTIGLLL	-0.151 ± 0.086

Variant	abundance fitness
HESKLSILMDMFPAISKSKLQVHLLFNNNDLDLTIGLLL	-0.59 ± 0.25
HESKLSILMDMFPAISKSKLQVHLLLNNNDLDLTIGLLL	-0.288 ± 0.049
HESKLSILMDMFPAISKSKLQVHLLSNNNDLDLTIGLLL	-0.131 ± 0.044
HESKLSILMDMFPAISKSKLQVHLLCNNNDLDLTIGLLL	-0.331 ± 0.1
HESKLSILMDMFPAISKSKLQVHLLTNNNDLDLTIGLLL	-0.113 ± 0.047
HESKLSILMDMFPAISKSKLQVHLLEENNDLDLTIGLLL	-0.134 ± 0.094
HESKLSILMDMFPAISKSKLQVHLLELNNDLDLTIGLLL	-0.325 ± 0.051
HESKLSILMDMFPAISKSKLQVHLLEINNDLDLTIGLLL	-0.461 ± 0.41
HESKLSILMDMFPAISKSKLQVHLLEMNNDLDLTIGLLL	-0.191 ± 0.077
HESKLSILMDMFPAISKSKLQVHLLEVNNDLDLTIGLLL	-0.415 ± 0.062
HESKLSILMDMFPAISKSKLQVHLLEFNNDLDLTIGLLL	-0.482 ± 0.25
HESKLSILMDMFPAISKSKLQVHLLECNNDLDLTIGLLL	-0.024 ± 0.07
HESKLSILMDMFPAISKSKLQVHLLETNNDLDLTIGLLL	-0.273 ± 0.062
HESKLSILMDMFPAISKSKLQVHLLEQNNDLDLTIGLLL	-0.132 ± 0.072
HESKLSILMDMFPAISKSKLQVHLLESNNDLDLTIGLLL	-0.164 ± 0.044
HESKLSILMDMFPAISKSKLQVHLLEWNNDLDLTIGLLL	-0.364 ± 0.074
HESKLSILMDMFPAISKSKLQVHLLEPNNDLDLTIGLLL	-0.997 ± 0.12
HESKLSILMDMFPAISKSKLQVHLLEKNNDLDLTIGLLL	-0.267 ± 0.14
HESKLSILMDMFPAISKSKLQVHLLEGNNDLDLTIGLLL	-0.243 ± 0.042
HESKLSILMDMFPAISKSKLQVHLLERNNDLDLTIGLLL	-0.244 ± 0.04
